The values below come from paper PMC9122904, “Insights into the client protein release mechanism of the ATP-independent chaperone Spy” (Nature Communications, 2022).

What is called koff is the rate constant with which the complex falls apart. As usually defined, the kon is the second-order rate constant of association.

What all share (experiment): BLI; Octet RED96; client biotinylated and loaded on streptavidin sensors; Spy or Spy variant in solution at 0.25, 0.5, 1, 1.5 and 2 μM; 40 mM HEPES, 150 mM NaCl, pH 7.5; Kd calculated as koff/kon
Holding throughout (details): both partners purified

The target in assay [1] is T1, Spy_(24-130) (UniProt P77754 47-153).
T1 construct: Spy chaperone, residues 24-130; source: E. coli BL21 (DE3), purified (Ni-NTA, cation exchange, SEC); not shown: His6, N-terminal, cleaved; SUMO, N-terminal, cleaved
T1 sequence (looked up): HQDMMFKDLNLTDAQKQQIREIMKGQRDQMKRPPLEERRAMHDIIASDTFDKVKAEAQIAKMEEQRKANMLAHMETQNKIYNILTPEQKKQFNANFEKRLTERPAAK
A digest of the protocol:
(§1)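 Association was recorded with an Octet RED96 as streptavidin sensors carrying client proteins, biotinylated with EZ-link NHS-biotin at a 1:1 molar ratio, sat in 40 mM HEPES, 150 mM NaCl, pH 7.5 with 0.25 to 2 μM of the analyte protein (0.25, 0.5, 1, 1.5 and 2 μM). Dissociation followed after transfer to analyte-free buffer. Both wavelength-shift phases were fitted in SigmaPlot 12.0 to obtain koff and the observed association rate, whose dependence on analyte concentration yielded kon, with Kd defined as koff divided by kon.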

The target in assay [2] is T2, Spy_(29-130) (UniProt P77754 52-153).
T2 construct: Spy chaperone, residues 29-130; source: E. coli BL21 (DE3), purified (Ni-NTA, cation exchange, SEC); not shown: His6, N-terminal, cleaved; SUMO, N-terminal, cleaved
T2 sequence (looked up): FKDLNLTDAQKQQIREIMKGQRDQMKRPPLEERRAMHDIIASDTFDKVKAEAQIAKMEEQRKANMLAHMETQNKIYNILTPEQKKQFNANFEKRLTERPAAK
The method, boiled down:
as §1

In assay [3] the target is T3, Spy_(21-127) (UniProt P77754 44-150).
T3 construct: Spy chaperone, residues 21-127; source: E. coli BL21 (DE3), purified (Ni-NTA, cation exchange, SEC); not shown: His6, N-terminal, cleaved; SUMO, N-terminal, cleaved
T3 sequence (looked up): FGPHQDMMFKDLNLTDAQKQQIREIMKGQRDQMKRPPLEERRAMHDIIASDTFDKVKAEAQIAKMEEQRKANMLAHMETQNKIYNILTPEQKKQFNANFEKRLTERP
The method, boiled down: as §1

The target of assay [4] is T4, Spy_(29-124) (UniProt P77754 52-147).
T4 construct: also called termini-free Spy; source: E. coli BL21 (DE3), purified (Ni-NTA, cation exchange, SEC); not shown: His6, N-terminal, cleaved; SUMO, N-terminal, cleaved
T4 sequence (looked up): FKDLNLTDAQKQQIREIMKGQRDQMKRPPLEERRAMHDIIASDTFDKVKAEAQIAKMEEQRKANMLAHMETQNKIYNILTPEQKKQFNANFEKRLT
A digest of the protocol:
as §1

The target in assay [5] is T5, Spy_(24-124) (UniProt P77754 47-147).
T5 construct: source: E. coli BL21 (DE3), purified (Ni-NTA, cation exchange, SEC); not shown: His6, N-terminal, cleaved; SUMO, N-terminal, cleaved
T5 sequence (looked up): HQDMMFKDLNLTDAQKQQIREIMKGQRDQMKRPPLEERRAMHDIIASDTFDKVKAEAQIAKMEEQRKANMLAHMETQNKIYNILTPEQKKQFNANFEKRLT
A digest of the protocol:
as §1

The target of assay [6] is T6, Spy wild type (Spy_(1-138)) (UniProt P77754 24-161).
T6 construct: Spy, ATP-independent periplasmic chaperone; also called WT; wt; source: E. coli BL21 (DE3), purified (Ni-NTA, cation exchange, SEC); not shown: His6, N-terminal, cleaved; SUMO, N-terminal, cleaved
T6 sequence (looked up): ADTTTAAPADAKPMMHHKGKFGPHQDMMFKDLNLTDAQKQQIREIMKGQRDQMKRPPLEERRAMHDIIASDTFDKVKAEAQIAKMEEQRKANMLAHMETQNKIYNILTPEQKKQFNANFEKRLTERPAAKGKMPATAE
A digest of the protocol:
as §1

Assay [7] addresses T7, Spy D26A (UniProt P77754 24-161, D26A).
T7 construct: source: E. coli BL21 (DE3), purified (Ni-NTA, cation exchange, SEC); not shown: His6, N-terminal, cleaved; SUMO, N-terminal, cleaved
T7 sequence (looked up): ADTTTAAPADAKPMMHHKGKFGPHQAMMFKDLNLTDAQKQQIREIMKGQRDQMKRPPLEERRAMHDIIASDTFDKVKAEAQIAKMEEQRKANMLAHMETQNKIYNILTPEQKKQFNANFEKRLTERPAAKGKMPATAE

Assay [8] has as its target T8, Spy D26R (UniProt P77754 24-161, D26R).
T8 construct: source: E. coli BL21 (DE3), purified (Ni-NTA, cation exchange, SEC); not shown: His6, N-terminal, cleaved; SUMO, N-terminal, cleaved
T8 sequence (looked up): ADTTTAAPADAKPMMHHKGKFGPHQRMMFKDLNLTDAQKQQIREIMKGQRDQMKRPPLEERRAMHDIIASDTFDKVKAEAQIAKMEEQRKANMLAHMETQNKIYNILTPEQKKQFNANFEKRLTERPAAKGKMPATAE

B1: Im7 H40W L53A I54A (natural protein)
chain: MELKNSISDYTEAEFVQLLKEIEKENVAATDDVLDVLLEWFVKITEHPDGTDAAYYPSDNRDDSPEGIVKEIKEWRAANGKPGFKQG
modifications: biotin (EZ-link NHS-biotin, 1:1 molar ratio of biotin to protein)
notes: Im7 (colicin E7 immunity protein) with H40W L53A I54A; Spy was made with an N-terminal His6-SUMO tag that was cleaved; also called Im7AAW; partially folded client; source: purified by a similar procedure to Spy
For B1, the koff is 0.3 s⁻¹ in assay [1]; 0.0937 s⁻¹ in assay [2]; 0.512 s⁻¹ in assay [3]; 0.089 s⁻¹ in assay [4]; 0.423 s⁻¹ in assay [5]; 0.179 s⁻¹ in assay [6]. Moreover, the results for the kon in assay [7] and in assay [8] were 322000 M⁻¹ s⁻¹ and 287000 M⁻¹ s⁻¹, respectively.
